Measurements as given in patent publication US20230159655A1.

Legend:
[1] = target: human NT5E-Biotin (NT5E, GenbankID: NP_002517.1, position: 1-552) (human) (UniProt P21589); test: ELISA on SA-captured NT5E-Biotin; antibody 0.333 ug/mL diluted 1:3; replicate 1
[2] = target: human NT5E-Biotin (NT5E, GenbankID: NP_002517.1, position: 1-552) (human) (UniProt P21589); test: ELISA on SA-captured NT5E-Biotin; antibody 0.333 ug/mL; replicate 1
[3] = target: human NT5E-Biotin (NT5E, GenbankID: NP_002517.1, position: 1-552) (human) (UniProt P21589); test: ELISA on SA-captured NT5E-Biotin; antibody 0.333 ug/mL; replicate 2
[4] = target: human NT5E-Biotin (NT5E, GenbankID: NP_002517.1, position: 1-552) (human) (UniProt P21589); test: ELISA on SA-captured NT5E-Biotin; antibody 0.333 ug/mL diluted 1:729; replicate 1
[5] = target: human NT5E-Biotin (NT5E, GenbankID: NP_002517.1, position: 1-552) (human) (UniProt P21589); test: ELISA on SA-captured NT5E-Biotin; antibody 0.333 ug/mL diluted 1:243; replicate 1
[6] = target: human NT5E-Biotin (NT5E, GenbankID: NP_002517.1, position: 1-552) (human) (UniProt P21589); test: ELISA on SA-captured NT5E-Biotin; antibody 0.333 ug/mL diluted 1:9; replicate 1
[7] = target: human NT5E-Biotin (NT5E, GenbankID: NP_002517.1, position: 1-552) (human) (UniProt P21589); test: ELISA on SA-captured NT5E-Biotin; antibody 0 (blank); replicate 2
[8] = target: human NT5E-Biotin (NT5E, GenbankID: NP_002517.1, position: 1-552) (human) (UniProt P21589); test: ELISA on SA-captured NT5E-Biotin; antibody 0.333 ug/mL diluted 1:9; replicate 2
[9] = target: CD73 endogenously expressed on the cell surface (MDA-MB-231 cells; U87-MG cells) (UniProt P21589); test: flow cytometry on MDA-MB-231 cells; antibody 0.14 nM
[10] = target: human NT5E-Biotin (NT5E, GenbankID: NP_002517.1, position: 1-552) (human) (UniProt P21589); test: ELISA on SA-captured NT5E-Biotin; antibody 0.333 ug/mL diluted 1:81; replicate 2
[11] = target: human NT5E-Biotin (NT5E, GenbankID: NP_002517.1, position: 1-552) (human) (UniProt P21589); test: ELISA on SA-captured NT5E-Biotin; antibody 0.333 ug/mL diluted 1:243; replicate 2
[12] = target: human NT5E-Biotin (NT5E, GenbankID: NP_002517.1, position: 1-552) (human) (UniProt P21589); test: ELISA on SA-captured NT5E-Biotin; antibody 0.333 ug/mL diluted 1:729; replicate 2
[13] = target: CD73 endogenously expressed on the cell surface (MDA-MB-231 cells; U87-MG cells) (UniProt P21589); test: flow cytometry on MDA-MB-231 cells; antibody […]
[14] = target: CD73 endogenously expressed on the cell surface (MDA-MB-231 cells; U87-MG cells) (UniProt P21589); test: flow cytometry on MDA-MB-231 cells; antibody 3.70 nM
[15] = target: human NT5E(1-552)-his (human) (UniProt P21589); test: Fortebio BLI, antibody on Protein A sensor, antigen 3.125-200 nM, 37 C, 1:1 fit
[16] = target: human NT5E-Biotin (NT5E, GenbankID: NP_002517.1, position: 1-552) (human) (UniProt P21589); test: ELISA on SA-captured NT5E-Biotin; antibody 0.333 ug/mL diluted 1:27; replicate 2
[17] = target: CD73 endogenously expressed on the cell surface (MDA-MB-231 cells; U87-MG cells) (UniProt P21589); test: flow cytometry on MDA-MB-231 cells; antibody 0.41 nM
[18] = target: human NT5E-Biotin (NT5E, GenbankID: NP_002517.1, position: 1-552) (human) (UniProt P21589); test: ELISA on SA-captured NT5E-Biotin; antibody 0.333 ug/mL diluted 1:27; replicate 1
[19] = target: CD73 endogenously expressed on the cell surface (MDA-MB-231 cells; U87-MG cells) (UniProt P21589); test: flow cytometry on MDA-MB-231 cells; antibody 33.33 nM
[20] = target: CD73 endogenously expressed on the cell surface (MDA-MB-231 cells; U87-MG cells) (UniProt P21589); test: flow cytometry on MDA-MB-231 cells; antibody 0.05 nM
[21] = target: CD73 endogenously expressed on the cell surface (MDA-MB-231 cells; U87-MG cells) (UniProt P21589); test: flow cytometry on MDA-MB-231 cells; antibody 100.00 nM
[22] = target: human NT5E-Biotin (NT5E, GenbankID: NP_002517.1, position: 1-552) (human) (UniProt P21589); test: ELISA on SA-captured NT5E-Biotin; antibody 0 (blank); replicate 1
[23] = target: human NT5E-Biotin (NT5E, GenbankID: NP_002517.1, position: 1-552) (human) (UniProt P21589); test: ELISA on SA-captured NT5E-Biotin; antibody 0.333 ug/mL diluted 1:3; replicate 2
[24] = target: human NT5E-Biotin (NT5E, GenbankID: NP_002517.1, position: 1-552) (human) (UniProt P21589); test: ELISA on SA-captured NT5E-Biotin; antibody 0.333 ug/mL diluted 1:81; replicate 1
[25] = target: CD73 endogenously expressed on the cell surface (MDA-MB-231 cells; U87-MG cells) (UniProt P21589); test: flow cytometry on MDA-MB-231 cells; antibody 11.11 nM

Chain of CD73 endogenously expressed on the cell surface (MDA-MB-231 cells; U87-MG cells) (P21589 27-549 limits assumed): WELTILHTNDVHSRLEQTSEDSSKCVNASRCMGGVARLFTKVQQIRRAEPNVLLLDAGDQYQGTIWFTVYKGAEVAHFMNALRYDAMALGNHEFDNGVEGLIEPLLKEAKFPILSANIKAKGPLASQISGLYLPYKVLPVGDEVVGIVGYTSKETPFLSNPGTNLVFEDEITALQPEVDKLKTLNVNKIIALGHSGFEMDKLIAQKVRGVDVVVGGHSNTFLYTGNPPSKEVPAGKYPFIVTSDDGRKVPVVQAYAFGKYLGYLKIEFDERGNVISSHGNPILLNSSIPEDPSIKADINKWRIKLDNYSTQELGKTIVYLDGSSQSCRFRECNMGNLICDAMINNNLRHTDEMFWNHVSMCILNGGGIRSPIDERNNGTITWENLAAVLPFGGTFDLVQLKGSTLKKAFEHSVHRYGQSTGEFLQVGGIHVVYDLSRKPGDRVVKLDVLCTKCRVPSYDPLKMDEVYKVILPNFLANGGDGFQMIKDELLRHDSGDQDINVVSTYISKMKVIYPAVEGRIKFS
Chain of human NT5E-Biotin (NT5E, GenbankID: NP_002517.1, position: 1-552) (human) (P21589 27-552 limits assumed, form in doubt): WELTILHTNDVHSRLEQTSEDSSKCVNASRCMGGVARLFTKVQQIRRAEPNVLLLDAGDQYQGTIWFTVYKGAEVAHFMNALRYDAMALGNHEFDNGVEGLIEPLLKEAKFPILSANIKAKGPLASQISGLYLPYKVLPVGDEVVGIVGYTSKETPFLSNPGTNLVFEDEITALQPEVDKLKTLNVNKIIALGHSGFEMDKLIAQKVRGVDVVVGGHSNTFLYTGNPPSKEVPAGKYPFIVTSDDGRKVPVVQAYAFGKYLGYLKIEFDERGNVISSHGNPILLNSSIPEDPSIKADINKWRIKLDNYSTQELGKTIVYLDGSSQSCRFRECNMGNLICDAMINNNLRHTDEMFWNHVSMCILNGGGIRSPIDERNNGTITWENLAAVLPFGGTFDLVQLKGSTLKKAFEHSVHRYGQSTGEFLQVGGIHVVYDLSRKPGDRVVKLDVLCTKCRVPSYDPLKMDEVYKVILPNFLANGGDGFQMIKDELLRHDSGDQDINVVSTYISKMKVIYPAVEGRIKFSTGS
Chain of human NT5E(1-552)-his (human) (P21589 27-552 limits assumed, form in doubt): as above

OD 450 nm [1]: 2.57 OD450 | OD 450 nm [2]: 2.55 OD450 | OD 450 nm [3]: 2.53 OD450 | OD 450 nm [4]: 0.272 OD450 | OD 450 nm [5]: 0.536 OD450 | OD 450 nm [6]: 2.27 OD450 | OD 450 nm [7]: 0.116 OD450 | OD 450 nm [8]: 2.28 OD450 | fluorescence intensity (FACS) [9]: 43.2 | OD 450 nm [10]: 1.03 OD450 | OD 450 nm [11]: 0.528 OD450 | OD 450 nm [12]: 0.275 OD450 | fluorescence intensity (FACS) [13]: 267 | fluorescence intensity (FACS) [14]: 454 | S E (kdis) [15]: 5.02e-06 s⁻¹ | OD 450 nm [16]: 1.74 OD450 | fluorescence intensity (FACS) [17]: 91 | OD 450 nm [18]: 1.77 OD450 | fluorescence intensity (FACS) [19]: 546 | fluorescence intensity (FACS) [20]: 28.4 | fluorescence intensity (FACS) [21]: 581 | OD 450 nm [22]: 0.121 OD450 | OD 450 nm [23]: 2.6 OD450 | OD 450 nm [24]: 1.06 OD450 | fluorescence intensity (FACS) [25]: 519
Substance: positive control antibody MEDI9447 (oleclumab)
